Experimental data taken from patent US11584938B2, “Plant EPSPS mutant containing L195P and S247G mutations and encoding gene and use thereof” (GEVOTO LLC, priority 2017, dated 2023).

Test system: double knockout E. coli (EPSPS defective E. coli, EDCE)
Experiment: growth of EPSPS defective E. coli transformed by the EPSPS gene in M9 culture media containing different glyphosate concentrations
Assay type: cell-based, E. coli DH5α
Conditions: for EPSPS enzyme activity: concluded from growth of defective E. coli at 0 mM glyphosate
From the text: A method for detecting the glyphosate resistance of the soybean EPSPS mutant G1 provided in Example 1 and the soybean EPSPS mutant G3 provided in Example 2 is as follows:
according to the sequence of the nucleic acid molecule provided in the example, synthesizing the encoding gene that encodes the soybean EPSPS mutant G1 or G3 using a chemical synthesis method, introducing enzyme sites (Pac1 and Sbf1) at two ends thereof, connecting to an expression vector (for example, a pADV5 vector, the structure of which is as shown in FIG. 15) that has undergone the same restriction enzyme digestion treatment under the action of ligase after restriction enzyme digestion, then transforming double knockout E. coli, picking positive colonies after verification, inoculating the positive colonies to M9 culture media containing different glyphosate concentrations for growth, and observing the growth situation of the E. coli.
The wild-type soybean EPSPS (with an amino acid sequence represented by SEQ ID NO: 2 and an encoding gene sequence represented by SEQ ID NO: 1) and the soybean EPSPS mutant G2 (with an amino acid sequence represented by SEQ ID NO: 6, and a corresponding encoding gene sequence represented by SEQ ID NO: 5) merely containing the mutation P114(101)S were taken as controls.
In the above, the M9 basal culture medium can be prepared by the following method:
5×M9 salt solution: 6.78 g of Na2HPO4, 3.0 g of KH2PO4, 0.5 g of NaCl, and 1.0 g of NH4Cl were weighed, added with ddH2O to 200 ml, and subjected to high-temperature and high-pressure sterilization treatment;
20% glucose: 20 g of glucose was weighed, added with 80 ml of ddH2O for dissolving, diluted to 100 ml, and subjected to filtration and sterilization treatment;
1.0 M MgSO4: 24.6 g of MgSO4-7H2O was weighed, dissolved with 80 ml of ddH2O, diluted to 100 ml, and subjected to sterilization treatment;
1.0 M CaCl2: 11.1 g of CaCl2 was weighed, dissolved with 80 ml of ddH2O, diluted to 100 ml, and subjected to sterilization treatment; and
1000 ml of the M9 basal culture media were prepared by adding ddH2O to 200 ml of 5×M9 salt solution, 20 ml of 20% glucose, 2 ml of 1.0 M MgSO4 and 0.1 ml of 1.0 M CaCl2 to make up to 1000 ml.
In the above, the E. coli used was double knockout E. coli, namely, EPSPS defective E. coli (E. coli DH5α with EPSPS gene and C-P Lyase gene being knocked out, named as EDCE, wherein for a preparation method thereof, reference can be made to a Chinese invention patent with the filing number CN2016103256926).
The glyphosate resistance of the soybean EPSPS mutant G4 provided in Example 3 and the soybean EPSPS mutant G5 provided in Example 4 was verified with reference to the detection method in Experiment Example 1.
The wild-type wheat EPSPS (with an amino acid sequence represented by SEQ ID NO: 14, and a corresponding encoding gene sequence represented by SEQ ID NO: 13) and the wheat EPSPS mutant T2 (with an amino acid sequence represented by SEQ ID NO: 18, and a corresponding encoding gene sequence represented by SEQ ID NO: 17) merely containing the mutation P118(101)S were taken as controls to verify the glyphosate resistance of the wheat EPSPS mutants T1 and T3 provided in Example 5 and Example 6, and reference can be made to Experiment Example 1 for the method.
A method for verifying the glyphosate resistance of the wheat EPSPS mutants T4, T5, and T6 provided in Examples 7-9 is the same as that in Experiment Example 3.
The wild-type rice EPSPS R0 (with an amino acid sequence represented by SEQ ID NO: 28, and a corresponding encoding gene sequence represented by SEQ ID NO: 27) and the rice EPSPS mutant R2 (with an amino acid sequence represented by SEQ ID NO: 32, and a corresponding encoding gene sequence represented by SEQ ID NO: 31) merely containing the mutation P116(101)S were taken as controls to verify the glyphosate resistance of the rice EPSPS mutants R1 and R3 provided in Examples 10 and 11, and reference can be made to Experiment Example 1 for the method. […]

[1] = culture media containing 0 mM glyphosate
[2] = culture media containing 1 mM glyphosate
[3] = culture media containing 5 mM glyphosate
[4] = culture media containing 20 mM glyphosate
[5] = culture media containing 10 mM glyphosate

| Molecule | glyphosate resistance (overall statement) | growth of the E. coli transformed by the EPSPS [1] | growth of the E. coli transformed by the EPSPS [2] | growth of the transformed E. coli compared with E. coli transformed by the control EPSPS named in the value [2] | growth of the E. coli transformed by the EPSPS [3] | EPSPS enzyme activity | growth of the transformed E. coli compared with E. coli transformed by the control EPSPS named in the value [3] | growth of the E. coli transformed by the EPSPS [4] | growth of the transformed E. coli compared with E. coli transformed by the control EPSPS named in the value [4] | growth of the E. coli transformed by the EPSPS [5] | growth of the transformed E. coli compared with E. coli transformed by the control EPSPS named in the value [5] |
| --- | --- | --- | --- | --- | --- | --- | --- | --- | --- | --- | --- |
| T1: wheat EPSPS mutant, SEQ ID NO: 16, mutation S269(247)G (protein) MATSVAAPAAPAGAEEVVLQPIREISGAVQLPGSKSLSNRILLLSALSEGTTVVDNLLNSEDVHYMLEALEALGLSVEADKVAKRAVVVGCGGRFPVEKDAKEEVKLFLGNAGTAMRPLTAAVVAAGGNATYVLDGVPRMRERPIGDLVVGLQQLGADVDCFLGTNCPPVRINGKGGLPGGKVKLSGSISSQYLSSLLMAAPLALEDVEIEIIDKLISVPYVEMTLKLMEHFGVTAEHSDSWDRFYIKGGQKYKSPGNAYVEGDASSAGYFLAGAAITGGTVTVEGCGTTSLQGDVKFAEVLEMMGAKVTWTDTSVTVTGPPRQPFGRKHLKAVDVNMNKMPDVAMTLAVVALFADGPTAIRDVASWRVKETERMVAIRTELTKLGATVEEGPDYCIITPPEKLNITAIDTYDDHRMAMAFSLAACAEVPVTIRDPGCTRKTFPNYFDVLSTFVKN | have glyphosate resistance | could grow | could grow normally | obviously superior to that of the E. coli transformed by T0 | did not grow obviously |  |  |  |  |  |  |
| T4: wheat EPSPS mutant, SEQ ID NO: 22, mutation L216(195)P (protein) MATSVAAPAAPAGAEEVVLQPIREISGAVQLPGSKSLSNRILLLSALSEGTTVVDNLLNSEDVHYMLEALEALGLSVEADKVAKRAVVVGCGGRFPVEKDAKEEVKLFLGNAGTAMRPLTAAVVAAGGNATYVLDGVPRMRERPIGDLVVGLQQLGADVDCFLGTNCPPVRINGKGGLPGGKVKLSGSISSQYLSSLLMAAPLALEDVEIEIIDKPISVPYVEMTLKLMEHFGVTAEHSDSWDRFYIKGGQKYKSPGNAYVEGDASSASYFLAGAAITGGTVTVEGCGTTSLQGDVKFAEVLEMMGAKVTWTDTSVTVTGPPRQPFGRKHLKAVDVNMNKMPDVAMTLAVVALFADGPTAIRDVASWRVKETERMVAIRTELTKLGATVEEGPDYCIITPPEKLNITAIDTYDDHRMAMAFSLAACAEVPVTIRDPGCTRKTFPNYFDVLSTFVKN |  | could grow | could grow normally |  | did not grow obviously | normal EPSPS enzyme activity |  |  |  |  |  |
| T6: wheat EPSPS mutant, SEQ ID NO: 26, mutations L216(195)P, S269(247)G and P118(101)S (protein) MATSVAAPAAPAGAEEVVLQPIREISGAVQLPGSKSLSNRILLLSALSEGTTVVDNLLNSEDVHYMLEALEALGLSVEADKVAKRAVVVGCGGRFPVEKDAKEEVKLFLGNAGTAMRSLTAAVVAAGGNATYVLDGVPRMRERPIGDLVVGLQQLGADVDCFLGTNCPPVRINGKGGLPGGKVKLSGSISSQYLSSLLMAAPLALEDVEIEIIDKPISVPYVEMTLKLMEHFGVTAEHSDSWDRFYIKGGQKYKSPGNAYVEGDASSAGYFLAGAAITGGTVTVEGCGTTSLQGDVKFAEVLEMMGAKVTWTDTSVTVTGPPRQPFGRKHLKAVDVNMNKMPDVAMTLAVVALFADGPTAIRDVASWRVKETERMVAIRTELTKLGATVEEGPDYCIITPPEKLNITAIDTYDDHRMAMAFSLAACAEVPVTIRDPGCTRKTFPNYFDVLSTFVKN |  | could grow | could grow normally |  | could grow | normal EPSPS enzyme activity | obviously superior to that of the E. coli transformed by T2 | could grow | obviously superior to that of the E. coli transformed by T2 |  |  |
| T2: wheat EPSPS mutant, SEQ ID NO: 18, merely containing the mutation P118(101)S; control (protein) MATSVAAPAAPAGAEEVVLQPIREISGAVQLPGSKSLSNRILLLSALSEGTTVVDNLLNSEDVHYMLEALEALGLSVEADKVAKRAVVVGCGGRFPVEKDAKEEVKLFLGNAGTAMRSLTAAVVAAGGNATYVLDGVPRMRERPIGDLVVGLQQLGADVDCFLGTNCPPVRINGKGGLPGGKVKLSGSISSQYLSSLLMAAPLALEDVEIEIIDKLISVPYVEMTLKLMEHFGVTAEHSDSWDRFYIKGGQKYKSPGNAYVEGDASSASYFLAGAAITGGTVTVEGCGTTSLQGDVKFAEVLEMMGAKVTWTDTSVTVTGPPRQPFGRKHLKAVDVNMNKMPDVAMTLAVVALFADGPTAIRDVASWRVKETERMVAIRTELTKLGATVEEGPDYCIITPPEKLNITAIDTYDDHRMAMAFSLAACAEVPVTIRDPGCTRKTFPNYFDVLSTFVKN |  | could grow | could grow normally |  | could grow |  |  | could grow |  | could grow |  |
| T3: wheat EPSPS mutant, SEQ ID NO: 20, mutations S269(247)G and P118(101)S (protein) MATSVAAPAAPAGAEEVVLQPIREISGAVQLPGSKSLSNRILLLSALSEGTTVVDNLLNSEDVHYMLEALEALGLSVEADKVAKRAVVVGCGGRFPVEKDAKEEVKLFLGNAGTAMRSLTAAVVAAGGNATYVLDGVPRMRERPIGDLVVGLQQLGADVDCFLGTNCPPVRINGKGGLPGGKVKLSGSISSQYLSSLLMAAPLALEDVEIEIIDKLISVPYVEMTLKLMEHFGVTAEHSDSWDRFYIKGGQKYKSPGNAYVEGDASSAGYFLAGAAITGGTVTVEGCGTTSLQGDVKFAEVLEMMGAKVTWTDTSVTVTGPPRQPFGRKHLKAVDVNMNKMPDVAMTLAVVALFADGPTAIRDVASWRVKETERMVAIRTELTKLGATVEEGPDYCIITPPEKLNITAIDTYDDHRMAMAFSLAACAEVPVTIRDPGCTRKTFPNYFDVLSTFVKN | have glyphosate resistance | could grow | could grow normally |  |  |  |  |  |  | could grow | obviously superior to that of the E. coli transformed by T2 |
| T5: wheat EPSPS mutant, SEQ ID NO: 24, mutations L216(195)P and S269(247)G (protein) MATSVAAPAAPAGAEEVVLQPIREISGAVQLPGSKSLSNRILLLSALSEGTTVVDNLLNSEDVHYMLEALEALGLSVEADKVAKRAVVVGCGGRFPVEKDAKEEVKLFLGNAGTAMRPLTAAVVAAGGNATYVLDGVPRMRERPIGDLVVGLQQLGADVDCFLGTNCPPVRINGKGGLPGGKVKLSGSISSQYLSSLLMAAPLALEDVEIEIIDKPISVPYVEMTLKLMEHFGVTAEHSDSWDRFYIKGGQKYKSPGNAYVEGDASSAGYFLAGAAITGGTVTVEGCGTTSLQGDVKFAEVLEMMGAKVTWTDTSVTVTGPPRQPFGRKHLKAVDVNMNKMPDVAMTLAVVALFADGPTAIRDVASWRVKETERMVAIRTELTKLGATVEEGPDYCIITPPEKLNITAIDTYDDHRMAMAFSLAACAEVPVTIRDPGCTRKTFPNYFDVLSTFVKN |  | could grow | could grow normally |  | grew obviously | normal EPSPS enzyme activity |  |  |  |  |  |
